Measurements reported in publication PMC3741392, “The Tip of the Tail Needle Affects the Rate of DNA Delivery by Bacteriophage P22” (PLoS ONE, 2013).

Biological target: the molecule itself
Test: crystal structure; hanging drop vapor diffusion, 26% PEG 3350, 50 mM Tris-HCl pH 8.0; space group P212121; one trimer in the asymmetric unit; 1.1 Å

B1: bacteriophage HS1 tail needle knob (domain or fragment)
chain: RISALEYATTRKKSEVVYSGVSVTIPTAPTNLVSLLKTLTPSSGTLAPFFDTVNNKMVVFNENKTLFFKLSIVGTWPSGTANRSMQLTFSGSVPDTLVSSRNSATTTDNILLATFFSVDKDGFLATNGSTLTIQSNGAAFTATTIKIIAEQ
stoichiometry N: 3
